Assay results taken from patent US20250059278A1 (SICHUAN HUIYU PHARMACEUTICAL, published 2025).
Residue numbers refer to the chain shown, from its start. Where two headings read alike, the source gives them in different places.

B1: Control antibody 1-3C6 (bispecific antibody, human IgG1, lambda)
heavy: not shown
light: QAVVTQESALTTSPGETVTLTCRSSTGAVTTSNYANWVQEKPDHLFTGLIGGTNKRAPGVPARFSGSLIGDKAALTITGAQTEDEAIYFCALWYSNLWVFGGGTKLTVLGQPKAAPSVTLFPPSSEELQANKATLVCLISDFYPGAVTVAWKADSSPVKAGVETTTPSKQSNNKYAASSYLSLTPEQWKSHRSYSCQVTHEGSTVEKTVAPTECS
B2: MSLN single-domain antibody 3C6 (VHH)
VHH: EVQLVESGGGLVQAGESLRLSCAVSGNIGSIRHMGWHRQDPGKERELVATITTVGTTYYANFVKGRFTISRDNAKNTVYLQMNSLKPEDTGVYYCRATAHPTDYWGQGTQVTVSS
notes: also called MSLN VHH
B3: CD3 monoclonal antibody M26 (antibody, human IgG1, lambda, V domains shown)
VH: EVQLVESGGGLVQPGGSLRLSCAASGFTFNTYAMNWVRQAPGKGLEWVARIRSKYNNYATYYADSVKDRFTISRDDSKSILYLQMNNLKTEDTAMYYCVRHGNFGNSQVSWFQYWGQGTLVTVSS
VL: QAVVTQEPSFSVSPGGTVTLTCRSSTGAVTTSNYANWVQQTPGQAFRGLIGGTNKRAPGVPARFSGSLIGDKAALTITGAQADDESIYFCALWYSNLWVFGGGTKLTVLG
notes: IgG: VH26 + IgG1 mutant CH, VL-1 + CL
B4: CD3 monoclonal antibody M27 (antibody, human IgG1, lambda, V domains shown)
VH: B3 VH with D68G, N87S, G102A, Q108Y, Q113A, Y114S
VL: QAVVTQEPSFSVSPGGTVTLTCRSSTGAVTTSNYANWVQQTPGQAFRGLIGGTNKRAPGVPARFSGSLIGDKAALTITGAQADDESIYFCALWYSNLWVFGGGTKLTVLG
notes: IgG: VH27 + IgG1 mutant CH, VL-1 + CL
B5: CD3 monoclonal antibody M38 (antibody, human IgG1, lambda, V domains shown)
VH: B3 VH with I80S, M95V, G105L, Q108Y
VL: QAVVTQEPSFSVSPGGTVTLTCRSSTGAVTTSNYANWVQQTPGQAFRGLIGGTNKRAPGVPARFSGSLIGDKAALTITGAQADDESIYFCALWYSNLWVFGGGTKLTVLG
notes: IgG: VH38 + IgG1 mutant CH, VL-1 + CL
B6: CD3 monoclonal antibody M40 (antibody, human IgG1, lambda, V domains shown)
VH: B3 VH with I80S, H101A, Q108Y
VL: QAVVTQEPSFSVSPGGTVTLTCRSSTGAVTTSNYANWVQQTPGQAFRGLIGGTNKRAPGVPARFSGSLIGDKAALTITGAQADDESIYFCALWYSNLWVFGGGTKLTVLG
notes: IgG: VH40 + IgG1 mutant CH, VL-1 + CL
B7: CD3 monoclonal antibody M30 (antibody, human IgG1, lambda, V domains shown)
VH: B3 VH with N87S, G102S, S107G, Q108Y, Q113A
VL: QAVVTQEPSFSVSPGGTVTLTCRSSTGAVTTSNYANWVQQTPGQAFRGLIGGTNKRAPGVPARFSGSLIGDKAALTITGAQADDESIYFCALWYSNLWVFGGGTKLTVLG
notes: IgG: VH30 + IgG1 mutant CH, VL-1 + CL
B8: CD3 monoclonal antibody M37 (antibody, human IgG1, lambda, V domains shown)
VH: B3 VH with G102A, G105S, Q108Y, Q113A
VL: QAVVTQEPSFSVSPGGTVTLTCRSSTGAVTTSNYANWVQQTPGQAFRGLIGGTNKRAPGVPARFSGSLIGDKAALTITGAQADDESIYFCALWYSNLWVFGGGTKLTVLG
notes: IgG: VH37 + IgG1 mutant CH, VL-1 + CL
B9: CD3 monoclonal antibody M39 (antibody, human IgG1, lambda, V domains shown)
VH: B3 VH with I80S, G102Q, Q108Y
VL: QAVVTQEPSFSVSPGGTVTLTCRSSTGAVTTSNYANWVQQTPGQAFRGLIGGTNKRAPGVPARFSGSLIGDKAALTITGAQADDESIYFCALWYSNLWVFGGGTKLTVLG
notes: IgG: VH39 + IgG1 mutant CH, VL-1 + CL
B10: CD3 monoclonal antibody M46 (antibody, human IgG1, lambda, V domains shown)
VH: B3 VH with N87S, G102A, Q108Y, Q113A, Y114S
VL: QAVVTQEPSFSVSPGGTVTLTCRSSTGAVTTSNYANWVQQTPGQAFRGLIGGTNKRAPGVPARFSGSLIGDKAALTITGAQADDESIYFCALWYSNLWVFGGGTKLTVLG
notes: IgG: VH46 + IgG1 mutant CH, VL-1 + CL
B11: CD3 monoclonal antibody M36 (antibody, human IgG1, lambda, V domains shown)
VH: B3 VH with I80S, N87S, G102S, G105P, Q108Y, Q113A
VL: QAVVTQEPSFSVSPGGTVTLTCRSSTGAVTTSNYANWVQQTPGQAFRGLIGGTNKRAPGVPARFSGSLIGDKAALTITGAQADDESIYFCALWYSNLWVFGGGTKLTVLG
notes: IgG: VH36 + IgG1 mutant CH, VL-1 + CL
B12: CD3 monoclonal antibody M29 (antibody, human IgG1, lambda, V domains shown)
VH: B3 VH with D68G, N87S, G105P, N106M, Q108Y, Q113A
VL: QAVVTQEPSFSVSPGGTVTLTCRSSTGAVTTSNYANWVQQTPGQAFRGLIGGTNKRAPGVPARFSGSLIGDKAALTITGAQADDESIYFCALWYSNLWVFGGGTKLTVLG
notes: IgG: VH29 + IgG1 mutant CH, VL-1 + CL
B13: CD3 monoclonal antibody M31 (antibody, human IgG1, lambda, V domains shown)
VH: B3 VH with D68G, M95V, G102S, Q108Y, Q113E
VL: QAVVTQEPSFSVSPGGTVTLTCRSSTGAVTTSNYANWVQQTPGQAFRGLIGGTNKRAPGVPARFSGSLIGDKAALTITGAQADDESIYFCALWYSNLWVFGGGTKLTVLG
notes: IgG: VH31 + IgG1 mutant CH, VL-1 + CL
B14: CD3 monoclonal antibody M34 (antibody, human IgG1, lambda, V domains shown)
VH: B3 VH with D68G, I80S, M95V, G105K, N106Q, Q108Y, Q113A
VL: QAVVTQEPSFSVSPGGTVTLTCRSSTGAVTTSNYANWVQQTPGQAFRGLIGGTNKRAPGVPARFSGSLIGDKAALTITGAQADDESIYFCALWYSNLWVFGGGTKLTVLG
notes: IgG: VH34 + IgG1 mutant CH, VL-1 + CL
B15: CD3 monoclonal antibody M45 (antibody, human IgG1, lambda, V domains shown)
VH: B3 VH with I80S, G102S, Q108Y
VL: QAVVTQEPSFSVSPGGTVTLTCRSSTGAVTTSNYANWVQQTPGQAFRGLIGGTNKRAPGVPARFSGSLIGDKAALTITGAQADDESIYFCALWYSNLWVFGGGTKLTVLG
notes: IgG: VH45 + IgG1 mutant CH, VL-1 + CL
B16: CD3 monoclonal antibody M43 (antibody, human IgG1, lambda, V domains shown)
VH: B3 VH with N87S, H101P, G105P, Q108Y, Q113A, Y114L
VL: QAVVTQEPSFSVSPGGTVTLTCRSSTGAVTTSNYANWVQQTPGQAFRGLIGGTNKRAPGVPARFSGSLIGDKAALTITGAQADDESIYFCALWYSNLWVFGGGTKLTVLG
notes: IgG: VH43 + IgG1 mutant CH, VL-1 + CL
B17: CD3 monoclonal antibody M35 (antibody, human IgG1, lambda, V domains shown)
VH: B3 VH with I80S, M95V, G102S, Q108Y, F112W, Q113A
VL: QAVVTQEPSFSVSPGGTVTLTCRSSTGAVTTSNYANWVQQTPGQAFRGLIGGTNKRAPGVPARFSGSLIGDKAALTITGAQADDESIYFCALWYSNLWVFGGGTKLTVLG
notes: IgG: VH35 + IgG1 mutant CH, VL-1 + CL
B18: CD3 monoclonal antibody M42 (antibody, human IgG1, lambda, V domains shown)
VH: B3 VH with D68G, I80S, G105Q, Q108Y
VL: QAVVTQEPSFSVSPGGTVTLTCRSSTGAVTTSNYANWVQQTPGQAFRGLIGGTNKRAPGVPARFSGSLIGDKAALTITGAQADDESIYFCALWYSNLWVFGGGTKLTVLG
notes: IgG: VH42 + IgG1 mutant CH, VL-1 + CL
B19: CD3 monoclonal antibody M41 (antibody, human IgG1, lambda, V domains shown)
VH: B3 VH with D68G, I80S, G102S, G105Q, Q108Y, Q113A
VL: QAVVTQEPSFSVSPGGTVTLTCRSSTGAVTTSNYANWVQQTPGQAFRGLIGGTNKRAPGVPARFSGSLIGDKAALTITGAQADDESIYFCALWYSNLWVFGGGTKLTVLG
notes: IgG: VH41 + IgG1 mutant CH, VL-1 + CL
B20: CD3 monoclonal antibody M44 (antibody, human IgG1, lambda, V domains shown)
VH: B3 VH with I80S, G105Q, Q108Y, V109I, Q113A
VL: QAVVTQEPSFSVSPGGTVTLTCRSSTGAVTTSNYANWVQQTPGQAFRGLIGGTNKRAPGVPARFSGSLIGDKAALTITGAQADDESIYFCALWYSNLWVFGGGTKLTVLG
notes: IgG: VH44 + IgG1 mutant CH, VL-1 + CL
B21: CD3 monoclonal antibody M32 (antibody, human IgG1, lambda, V domains shown)
VH: B3 VH with D68G, I80S, N87S, M95V, G102S, Q108R, Q113A
VL: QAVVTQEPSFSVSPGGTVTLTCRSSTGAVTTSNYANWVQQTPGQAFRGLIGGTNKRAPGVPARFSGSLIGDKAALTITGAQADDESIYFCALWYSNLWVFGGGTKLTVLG
notes: IgG: VH32 + IgG1 mutant CH, VL-1 + CL
B22: CD3 monoclonal antibody M33 (antibody, human IgG1, lambda, V domains shown)
VH: B3 VH with D68G, I80S, N87S, M95V, S107N, Q108Y, Q113A, Y114S
VL: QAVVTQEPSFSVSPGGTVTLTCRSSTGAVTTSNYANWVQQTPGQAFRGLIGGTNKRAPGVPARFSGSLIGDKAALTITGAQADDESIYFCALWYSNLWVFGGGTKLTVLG
notes: IgG: VH33 + IgG1 mutant CH, VL-1 + CL
B23: Positive control bispecific antibody OKT3-3C6 (bispecific antibody, human IgG1, lambda)
heavy: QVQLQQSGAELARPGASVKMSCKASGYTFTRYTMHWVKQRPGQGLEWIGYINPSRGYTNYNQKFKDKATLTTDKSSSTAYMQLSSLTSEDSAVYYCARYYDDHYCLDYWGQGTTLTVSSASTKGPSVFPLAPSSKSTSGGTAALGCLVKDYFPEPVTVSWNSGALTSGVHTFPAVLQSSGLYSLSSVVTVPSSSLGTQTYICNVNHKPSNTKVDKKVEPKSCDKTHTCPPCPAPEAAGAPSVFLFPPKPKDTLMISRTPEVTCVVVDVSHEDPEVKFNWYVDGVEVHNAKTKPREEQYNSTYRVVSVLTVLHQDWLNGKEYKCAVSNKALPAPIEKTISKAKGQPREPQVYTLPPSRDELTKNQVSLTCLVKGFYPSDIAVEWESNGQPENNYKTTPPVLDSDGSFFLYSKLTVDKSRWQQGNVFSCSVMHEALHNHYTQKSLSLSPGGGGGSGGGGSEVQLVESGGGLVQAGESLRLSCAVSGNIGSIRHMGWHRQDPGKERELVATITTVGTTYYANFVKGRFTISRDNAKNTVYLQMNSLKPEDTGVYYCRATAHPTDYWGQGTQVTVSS
light: QIVLTQSPAIMSASPGEKVTMTCSASSSVSYMNWYQQKSGTSPKRWIYDTSKLASGVPAHFRGSGSGTSYSLTISGMEAEDAATYYCQQWSSNPFTFGSGTKLEIGQPKAAPSVTLFPPSSEELQANKATLVCLISDFYPGAVTVAWKADSSPVKAGVETTTPSKQSNNKYAASSYLSLTPEQWKSHRSYSCQVTHEGSTVEKTVAPTECS

How the values were obtained:
[1] = target: T1, Monkey CD3 on cynomolgus HSC-F cells (cynomolgus monkey, UniProt Q95LI5 22-198; Q95LI7 23-181; Q95LI8 22-171); assay: flow cytometry on HSC-F cells
T1 construct: whole, on cells; also called Monkey CD3-expressing cynomolgus HSC-F cells; cynomolgus monkey CD3-expressing HSC-F cells

[2] = target: T2, Human CD3 on Jurkat cells (human, UniProt P07766 23-207; P09693 23-182; P04234 22-171); assay: cell-based or functional assay
[3] = target: T2, Human CD3 on Jurkat cells; assay: flow cytometry on Jurkat cells
[4] = target: T3, human MSLN-his (Kaika Biotech, MSL-HM18D) (human, UniProt Q13421 296-580, limits assumed); assay: ELISA, coated huMSLN-his
T3 construct: Bought protein; also called huMSLN-his; huMSLN; not shown: his tag
T3 sequence (Q13421 other isoform, or with tags, fused parts or gaps limits assumed): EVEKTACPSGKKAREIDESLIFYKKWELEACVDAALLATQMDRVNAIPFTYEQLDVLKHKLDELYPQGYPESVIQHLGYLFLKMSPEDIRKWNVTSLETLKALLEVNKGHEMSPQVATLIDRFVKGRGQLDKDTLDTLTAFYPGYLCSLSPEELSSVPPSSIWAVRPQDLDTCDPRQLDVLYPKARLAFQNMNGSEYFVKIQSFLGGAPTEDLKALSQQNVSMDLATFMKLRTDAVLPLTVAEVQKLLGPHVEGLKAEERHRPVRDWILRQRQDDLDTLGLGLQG

[5] = target: T4, Human MSLN on MC38/MSLN stably transfected cells (Example 5) (human, UniProt Q13421 296-598); assay: flow cytometry on MC38/MSLN cells
T4 construct: whole, on cells; also called MC38/MSLN cells; huMSLN
T4 sequence (Q13421 other isoform, or with tags, fused parts or gaps limits assumed): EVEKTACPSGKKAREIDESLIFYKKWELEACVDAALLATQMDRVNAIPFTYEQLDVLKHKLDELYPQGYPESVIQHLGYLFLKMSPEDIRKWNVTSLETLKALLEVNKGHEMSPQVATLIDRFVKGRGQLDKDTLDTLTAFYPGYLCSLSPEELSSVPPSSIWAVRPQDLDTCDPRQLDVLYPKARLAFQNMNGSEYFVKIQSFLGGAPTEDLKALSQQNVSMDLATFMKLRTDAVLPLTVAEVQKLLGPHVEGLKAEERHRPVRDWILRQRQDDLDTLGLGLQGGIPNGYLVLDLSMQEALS

[6] = target: T5, huMSLN-Fc (Kaika Biotech, MSL-HM280) (human, UniProt Q13421 296-580, limits assumed); assay: SPR chip (Carterra), 3C6 captured by anti-DYKDDDDK, huMSLN-Fc in flow
T5 construct: Bought protein; also called huMSLN-hFc; hFc-tagged human MSLN recombinant protein; not shown: Fc (hFc) tag

[7] = target: T6, mouse MSLN-his (Kaika Biotech, MSL-MM180) (mouse, UniProt Q61468 298-600, limits assumed); assay: ELISA, coated muMSLN-his
T6 construct: Bought protein; also called muMSLN-his; muMSLN; not shown: his tag
T6 sequence (looked up): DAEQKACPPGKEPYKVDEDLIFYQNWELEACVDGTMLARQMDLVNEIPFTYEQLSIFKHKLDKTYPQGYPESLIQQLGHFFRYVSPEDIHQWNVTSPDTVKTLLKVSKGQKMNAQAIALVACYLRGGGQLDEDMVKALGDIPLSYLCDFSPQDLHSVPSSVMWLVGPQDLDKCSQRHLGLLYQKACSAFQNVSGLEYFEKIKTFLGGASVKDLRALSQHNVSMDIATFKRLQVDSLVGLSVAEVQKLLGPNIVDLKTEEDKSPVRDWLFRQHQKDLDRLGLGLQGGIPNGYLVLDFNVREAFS

[8] = target: T7, monkey MSLN-his (Kaika Biotech, MSL-CM180) (monkey (cyno)); assay: ELISA, coated cynoMSLN-his
T7 construct: Bought protein; also called cynoMSLN-his; cynoMSLN

[9] = target: T8, cynoMSLN-Fc (Kaika Biotech, MSL-CM280) (cyno); assay: SPR chip (Carterra), 3C6 captured by anti-DYKDDDDK, cynoMSLN-Fc in flow
T8 construct: Bought protein

[10] = target: T2, Human CD3 on Jurkat cells; assay: flow cytometry on Jurkat cells; remark: listed apart in the source
[11] = target: T9, Human CD3εγ recombinant antigen (acrobiosystems, Cat. No. CDG-H52W5) (human, UniProt P07766 23-126; P09693 23-116); assay: SPR chip (Carterra), antibody captured, antigen in flow;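 also: antibodies captured through anti-human IgG Fc at roughly 1000 RU, kinetic constants fitted with a 1:1 binding model in Carterra analysis software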
T9 construct: Bought recombinant protein

[12] = target: T1, Monkey CD3 on cynomolgus HSC-F cells; assay: flow cytometry on HSC-F cells; remark: listed apart in the source

Row | Binder | EC50 [10] | Kd [11] | koff [11] | kon [11] | EC50 [12] | other results
1 | B1 |  |  |  |  |  | EC50 [1]: 0.28 nM; EC50 (nM), activation of Jurkat-TIGIT-luc cells with MC38/MSLN tumor cells [2]: 0.036 nM; EC50 (nM), activation of T cell activation signaling pathway, Jurkat-TIGIT-luc cells without tumor cells [2]: 0.21 nM; EC50 [3]: 0.222 nM
2 | B2 |  |  |  |  |  | EC50 [4]: 0.463 nM; EC50 [5]: 11.8 nM; Kd [6]: 5.66 nM; koff [6]: 0.000304 s⁻¹; kon [6]: 53600 M⁻¹ s⁻¹; EC50 [7]: 28.6 nM; EC50 [8]: 0.788 nM; Kd [9]: 1.04 nM; koff [9]: 4.69e-05 s⁻¹; kon [9]: 45300 M⁻¹ s⁻¹
3 | B3 | 0.235 nM | 3.51 nM | 0.00543 s⁻¹ | 1.55e+06 M⁻¹ s⁻¹ | 0.223 nM | 
4 | B4 | 0.403 nM | 2.44 nM | 0.0028 s⁻¹ | 1.15e+06 M⁻¹ s⁻¹ | 0.165 nM | 
5 | B5 | 0.176 nM | 2.33 nM | 0.00268 s⁻¹ | 1.15e+06 M⁻¹ s⁻¹ | 0.161 nM | 
6 | B6 | 3.41 nM | 1.28 nM | 0.00055 s⁻¹ | 431000 M⁻¹ s⁻¹ | 0.407 nM | 
7 | B7 | 0.302 nM | 2.93 nM | 0.00234 s⁻¹ | 798000 M⁻¹ s⁻¹ | 0.347 nM | 
8 | B8 | 0.211 nM | 5.31 nM | 0.0043 s⁻¹ | 810000 M⁻¹ s⁻¹ | 0.398 nM | 
9 | B9 | 0.759 nM | 29.7 nM | 0.0305 s⁻¹ | 1.02e+06 M⁻¹ s⁻¹ | 0.498 nM | 
10 | B10 | 0.338 nM | 2.05 nM | 0.00205 s⁻¹ | 999000 M⁻¹ s⁻¹ | 0.148 nM | 
11 | B11 | 0.198 nM | 1.69 nM | 0.0109 s⁻¹ | 6.46e+06 M⁻¹ s⁻¹ | 0.109 nM | 
12 | B12 | 0.412 nM | 5.88 nM | 0.00776 s⁻¹ | 1.32e+06 M⁻¹ s⁻¹ | 0.272 nM | 
13 | B13 | 1.56 nM | 0.43 nM | 0.00126 s⁻¹ | 2.92e+06 M⁻¹ s⁻¹ | 0.154 nM | 
14 | B14 | 2.58 nM | 7.22 nM | 0.0034 s⁻¹ | 471000 M⁻¹ s⁻¹ | 0.266 nM | 
15 | B15 | 0.415 nM | 1.87 nM | 0.00344 s⁻¹ | 1.85e+06 M⁻¹ s⁻¹ | 0.156 nM | 
16 | B16 | 10.2 nM | 13.3 nM | 0.0016 s⁻¹ | 120000 M⁻¹ s⁻¹ | 8.24 nM | 
17 | B17 | 0.792 nM | 0.842 nM | 0.00283 s⁻¹ | 3.36e+06 M⁻¹ s⁻¹ | 0.207 nM | 
18 | B18 | 0.431 nM | 1.15 nM | 0.00137 s⁻¹ | 1.19e+06 M⁻¹ s⁻¹ | 0.143 nM | 
19 | B19 | 0.751 nM | 1.52 nM | 0.00513 s⁻¹ | 3.38e+06 M⁻¹ s⁻¹ | 0.13 nM | 
20 | B20 | 1.61 nM | 3.33 nM | 0.00334 s⁻¹ | 1e+06 M⁻¹ s⁻¹ | 0.141 nM | 
21 | B21 | 0.188 nM | 4.37 nM | 0.0133 s⁻¹ | 3.05e+06 M⁻¹ s⁻¹ | 0.0667 nM | 
22 | B22 | 4.92 nM | 19.3 nM | 0.0054 s⁻¹ | 280000 M⁻¹ s⁻¹ | 1.55 nM | 
23 | B23 |  |  |  |  |  | binding result [1]: no binding (tested: 2 µg/ml starting concentration); EC50 [3]: 0.0736 nM
